Assay results from PMC11371640, “Structural deficits in key domains of Shank2 lead to alterations in postsynaptic nanoclusters and to a neurodevelopmental disorder in humans” (Molecular Psychiatry, 2022).

B1: His6-SUMO-tagged SH3 to PDZ domains of Shank2 (R520-D727), WT [not stated (human or rat cDNA cloned)] / synthetic peptide of the complete PDZ ligand of GKAP (last 15 amino acids of GKAP/SAPAP1) [not stated] (parent complex)
chain 1: RKLYSAVPGRLFVAVKPYQPQVDGEIPLHRGDRVKVLSIGEGGFWEGSARGHIGWFPAECVEEVQCKPRDSQAETRADRSKKLFRHYTVGSYDSFDTSSDCIIEEKTVVLQKKDNEGFGFVLRGAKADTPIEEFTPTPAFPALQYLESVDEGGVAWQAGLRTGDFLIEVNNENVVKVGHRQVVNMIRQGGNHLVLKVVTVTRNLDPDD
chain 2: ADSIEIYIPEAQTRL

Variants of: B1
Experiment: ITC; parent: 319 nM

Kd [nM]	Variant
411	chain 1 N171S
910	chain 1 S91Y
848	chain 1 V198F

Variants of: B1
Experiment: ITC; parent: 320 nM

Kd [nM]	Variant
22500	chain 1 G124R

Variants of: B1
Experiment: ITC; parent: 319 nM
Remark: another data set of the same source

Kd [nM]	Variant
22000	chain 1 G124R
